Assay results as given in IntAct's records for PubMed 23027862.

B1: Beta-1,3-galactosyl-O-glycosyl-glycoprotein beta-1,6-N-acetylglucosaminyltransferase (Homo sapiens), Q02742 (parent)
chain: MLRTLLRRRLFSYPTKYYFMVLVLSLITFSVLRIHQKPEFVSVRHLELAGENPSSDINCTKVLQGDVNEIQKVKLEILTVKFKKRPRWTPDDYINMTSDCSSFIKRRKYIVEPLSKEEAEFPIAYSIVVHHKIEMLDRLLRAIYMPQNFYCIHVDTKSEDSYLAAVMGIASCFSNVFVASRLESVVYASWSRVQADLNCMKDLYAMSANWKYLINLCGMDFPIKTNLEIVRKLKLLMGENNLETERMPSHKEERWKKRYEVVNGKLTNTGTVKMLPPLETPLFSGSAYFVVSREYVGYVLQNEKIQKLMEWAQDTYSPDEYLWATIQRIPEVPGSLPASHKYDLSDMQAVARFVKWQYFEGDVSKGAPYPPCDGVHVRSVCIFGAGDLNWMLRKHHLFANKFDVDVDLFAIQCLDEHLRHKALETLKH

Variants of: B1
Conditions: with golp3_human GOLPH3, Q9H4A6
Sequence of golp3_human GOLPH3, Q9H4A6 (Q9H4A6 whole entry): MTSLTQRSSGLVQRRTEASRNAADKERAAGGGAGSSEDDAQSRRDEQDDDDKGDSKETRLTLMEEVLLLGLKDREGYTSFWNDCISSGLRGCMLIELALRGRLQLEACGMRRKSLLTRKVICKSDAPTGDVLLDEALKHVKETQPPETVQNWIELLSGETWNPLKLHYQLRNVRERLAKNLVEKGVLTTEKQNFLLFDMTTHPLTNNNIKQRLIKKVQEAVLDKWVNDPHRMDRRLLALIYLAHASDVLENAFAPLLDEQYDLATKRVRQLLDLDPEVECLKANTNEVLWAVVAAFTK
With MLRTLLAAALFSYPTKYYFMVLVLSLITFSVLRIHQKPEFVSVRHLELAGENPSSDINCTKVLQGDVNEIQKVKLEILTVKFKKRPRWTPDDYINMTSDCSSFIKRRKYIVEPLSKEEAEFPIAYSIVVHHKIEMLDRLLRAIYMPQNFYCIHVDTKSEDSYLAAVMGIASCFSNVFVASRLESVVYASWSRVQADLNCMKDLYAMSANWKYLINLCGMDFPIKTNLEIVRKLKLLMGENNLETERMPSHKEERWKKRYEVVNGKLTNTGTVKMLPPLETPLFSGSAYFVVSREYVGYVLQNEKIQKLMEWAQDTYSPDEYLWATIQRIPEVPGSLPASHKYDLSDMQAVARFVKWQYFEGDVSKGAPYPPCDGVHVRSVCIFGAGDLNWMLRKHHLFANKFDVDVDLFAIQCLDEHLRHKALETLKH [R7A;R8A;R9A] the “effect of a mutation on the interaction” value was “disrupting interaction strength”.

Variants of: B1
Conditions: with golp3_human GOLPH3, Q9H4A6
Remark: another data set of the same source
MLRTAARRRLFSYPTKYYFMVLVLSLITFSVLRIHQKPEFVSVRHLELAGENPSSDINCTKVLQGDVNEIQKVKLEILTVKFKKRPRWTPDDYINMTSDCSSFIKRRKYIVEPLSKEEAEFPIAYSIVVHHKIEMLDRLLRAIYMPQNFYCIHVDTKSEDSYLAAVMGIASCFSNVFVASRLESVVYASWSRVQADLNCMKDLYAMSANWKYLINLCGMDFPIKTNLEIVRKLKLLMGENNLETERMPSHKEERWKKRYEVVNGKLTNTGTVKMLPPLETPLFSGSAYFVVSREYVGYVLQNEKIQKLMEWAQDTYSPDEYLWATIQRIPEVPGSLPASHKYDLSDMQAVARFVKWQYFEGDVSKGAPYPPCDGVHVRSVCIFGAGDLNWMLRKHHLFANKFDVDVDLFAIQCLDEHLRHKALETLKH [L5A;L6A] was tested, and the “effect of a mutation on the interaction” value was “disrupting interaction strength”.
